Test: yeast display, Sf9 membrane polyspecificity reagent, FACS + sequencing; frameworks hold sequencing errors
Method in brief: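 Galactose induction of a Saccharomyces cerevisiae BJ5465 synthetic nanobody display library ran 36–48 hours. The cells were then stained for 1 hour at 4 °C with 10% biotinylated, detergent-solubilized Sf9 membrane reagent, pulled down on streptavidin microbeads and FACS-sorted into low and high (top ~1%) gates on expression and reagent-binding fluorescence. Labels for polyreactivity follow the gate of origin.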
With “QVQLVDSGGGLVQAGGSLRLSCAASGFIFQYYAMGWYRQAPGKEMGLVAAISFSGGSTYYADSVKGRFTISRDNAKNTVYLQMNSLKPEDTAVYYCAAEVYSVGDYSGHDYYWGQGTQVTVSS” the “polyreactivity (PSR sort gate)” value was “low polyreactivity”.
For “QVQLVESGGGLVQAGGSLRLSCAASGSIFAQYAMGWYRQAPGKERELVATISSVGSTNYADSVKGRFTISRDNAKNSVYLLMNSLKPEDTAVYYCNAVRSGWGYFYGLNSWGQGTQVTVSS”, the “polyreactivity (PSR sort gate)” value was “low polyreactivity”.
With “QVQLVESGGGLVQAGGSLRLSCAASGFIFSGYAMGWYRQAPGKEWELVAAISRRGGSTYYADSVKGRFTISRDNAKNTVYLQMNSLKPEDTAVYYCARTTRGSYGKFYYWGQGTQVTVSS” the “polyreactivity (PSR sort gate)” value was “high polyreactivity”.
In the case of “QVQLVESGGGLVQAGGSLRLSCAASGSTFGWYVMGWYRQAPGKERELVAAISQRGGRTYYADSVKGRFSISRDNAKNTVYLQMNSLKPEDTAVYYCAAPGVRVGPTFPRQGYDYWGQGTQVTVSS”, the “polyreactivity (PSR sort gate)” value is reported as “high polyreactivity”.
For “QVQLVESGGGLVQAGGSLRLSCAASGGNFSLNAMGWYRQAPGKERELVATISWSGTSTHYADSVKGRFTISRDNAKNTVYLQMNSLKPEDTAVYYCNTRLYGRDYSWYDYWGQGTQVTVSS”, the “polyreactivity (PSR sort gate)” value was “high polyreactivity”.
With “QVQLVESGGGLVQAGRSLRLRCPASGLTINSYAMGWYRQAPGKERELVAAIDWSGGRTYYADSVKGRFTISRDNAKNTVYLQMNSLKPEDTAVYYCAAYSRNRALRFNYWGQGTQVTVSS” the “polyreactivity (PSR sort gate)” value was “high polyreactivity”.
In the case of “QVQLVESGGGLVQAGGSLRLSCAASGINFWYYAMVGYRQATGKERELDAAITGGSTYYADSVKGRFTISRDNAKNTVYLQMISLKQEDTAVYYCNADSVFEYWDYDYWGQGTQVTVSS”, the “polyreactivity (PSR sort gate)” value is reported as “low polyreactivity”.
For “QVQLVETGRGLFHAGGSLRLSCAASGGIFRVYAMGWYIPAPGKERELVAAISRSGSSTYYADSVKGRFTISRDNAKNTVYLQMNSLKPEDTAVYYCNAYSQYWLGNNYWGQGTQVTVSS”, the “polyreactivity (PSR sort gate)” value was “high polyreactivity”.
For “QVQLVESGGGLVQAGGRLRLSCAATGFTFTYYPMGWYRQATGKETEFVAAITWNSGTTYYADSVKGRFTISRDNAKNTVYLQMISLKPEDTAVYYCNALWHRQRWSRGDYWRQGTQVTVSS”, the “polyreactivity (PSR sort gate)” value was “high polyreactivity”.
With “QVQLVESGGGLVQAGGSLRLSCAASGLIFQRNTMGWYRQAPGKERELVAAISRSGGSTYYADSVKGRFTISRDNAKNTVYLQMNSLKPEDTAVYYCAALIFRHRGKDDDYWGQGTQVTVSS” the “polyreactivity (PSR sort gate)” value was “high polyreactivity”.
With “QVQLVESGGGLVQAGGSLRLSCAASGFTFGYNTMGWYRQAPGKERELVATITSGGSTYYADSVKGRFTISRDNAKNTDYLQMNSLKPEDTAVYYCAATAGSPWAKSRYGYWGQGTQVTVSS” the “polyreactivity (PSR sort gate)” value was “low polyreactivity”.
In the case of “QVQLGETGGGLVQAGGSLRLSCAASGFNFGYYVMGWYRQAPGKERELVAAITSGGSKYYADSVKGRFTISRDNAKNTVYLQMNSLKPEDTAVYYCNKYGVVLPGFDEWGQGTQVTVSS”, the “polyreactivity (PSR sort gate)” value is reported as “high polyreactivity”.
In the case of “QVQLVESGGGLVQAGGILRLSCAASGSNFGYYVMGWYRQAPGKERELVAGISTGGSTYYADSVKGRFTISRDNAKNTVYLQMNSLKPEDTAVYYCAADYTLSYWGFVYWGQGTQVTVSS”, the “polyreactivity (PSR sort gate)” value is reported as “low polyreactivity”.
With “QVQLVESGGRLVQAGGSLRLSCAASGNIFTVNAMGWYRQAPGKERELVAAISVGDGTTYYADSVKGRFTISRDNAKNTVYLQMNSLKPEDTAVYYCAAEGYTDYEYWGQGTQVTVSS” the “polyreactivity (PSR sort gate)” value was “high polyreactivity”.
With “QVQLVESGGGLVQAGGSLRLSCAASGFTFVHNAMGWYRQAHGKERELVAAISSSGGRTYYADSVKGRFTISRDNAKNTVYLQMNSLKPEDTAVYYCATVNRYGPSYGYWGQGTQVTVSS” the “polyreactivity (PSR sort gate)” value was “high polyreactivity”.
For “QVQLVESGGGLVQAGGSLRLSCAASGRIFGYYMGWYRQAPGKERELVARITFRGGSTYYADSVKGRFTISRDNAKNTVYLQMNSLKPEDTAVYYCNASGKGGSTNRSDYWGQGTQVTVSW”, the “polyreactivity (PSR sort gate)” value was “high polyreactivity”.
For “QVQLVESGGGLVQAGGSLRLSCAASGIIFRNYAMGWYRQAPGKERELVAAISSNGGSTYYADSVKGRFTISRDNAKNTVYLQMNSLKPEDTAVYYCAARHSLYGYWGQGTQVTVSS”, the “polyreactivity (PSR sort gate)” value was “high polyreactivity”.
In the case of “QVQLVESGGGLVQAGGSLRLSCAASGRIFLSNGMGWYRHAPGKERELVAGITTGGGDSTYYADSVKGRFTISRDNAKHTVYLQMNSLKPEDTAVYYCNADSVYAGFDYWGQGPQVTVSS”, the “polyreactivity (PSR sort gate)” value is reported as “low polyreactivity”.
In the case of “QVQLQDSGGGLVQAGGSLRLNCATSGTIFVLWYMGCYRQAPGKERELVATINDGANTYYADSVKGRFTINRDNANSTVYLQMNSLQPEDSAVYYCSVYAIIVWGLGYWGQGTQVTVSS”, the “polyreactivity (PSR sort gate)” value is reported as “high polyreactivity”.
For “QVQLVESGGGLVQAGGSLRLSCAASGSTFTEYAMGWYRQAPGKERELVAGISSDGSTKYADSVKGRFTISRDNAKNTVYLQMNSLKPEDTAVYYCNKDQSYAKYDYWGQGTQVTVSS”, the “polyreactivity (PSR sort gate)” value was “low polyreactivity”.
In the case of “QVQLVESGGGLVQAGGSLRLSCAASGSIFYFYTMGWYRQAPGKERELVASITYSGGRTYYADSVKGRFTISRDNAKNSVYLQMNSLKPEDTAVYYCAVRGYRRYWGQGTQVTVSS”, the “polyreactivity (PSR sort gate)” value is reported as “high polyreactivity”.
In the case of “QVQLVESGGGLVQAGGSHRLSCAASGRIFSVNAMGWYRQAPGKERELVASISWSGGSTYYADSVKGRFTISRDNAKNPVYLQMNSLKPEDTAVYYCNARIDSYGLDFDYWGQGTQVTVSS”, the “polyreactivity (PSR sort gate)” value is reported as “low polyreactivity”.
With “QVQLVESGGGLVQAGGSLRLSCAASGRIFIYNAMGWYRQAPGKEREFVAAISSSGGSTYYADSVKGRFTISRDNAKNTVYLQMNSLKPEDTAVYYCAAGGWPYSGGLFFQPNYDYWGQGTQVTVSS” the “polyreactivity (PSR sort gate)” value was “low polyreactivity”.
For “QDQLVESGGGLVQAGGSLRLSCAASGRTFYCYAMGGYRQAPGKDRELVAAISSGDITSYADSVKGRFTISRDNAKNTVYLQMNSVKPEDTAVYYCAAEVVAWSLYEDFKTYDYWGQGTQVTVSS”, the “polyreactivity (PSR sort gate)” value was “low polyreactivity”.
With “QVQLVESGGGLVQAGGSLRLSCAASGLTFVYYAMGWSRPAPGKERELVAAISRGGTTYYADSVKGRFTISRDNAKNTVYLQMNSLKPEDTAVYYCARVGRYRYEWGQGTQVTVSS” the “polyreactivity (PSR sort gate)” value was “high polyreactivity”.
With “QVQLVESGGGLVQAGGSLRLSCAASGFTFSKYAMGWYLQAPGKERELVAAISRRGGSTYYADSVKGRFTISRDNAKNTVYLQMNSLKPEDTAVYYCAARYSVGTGYGYWGQGTQVTVSS” the “polyreactivity (PSR sort gate)” value was “high polyreactivity”.
In the case of “QVQVVESGGGLVQAGGSLRLSCAASGSTFPGNAMGWYRQAPGKERDLVAAITSTGTTYYADSVKGRFTISRDNAKNTVYLQMNSLKPEDTAVYYWNADPSPDPSTFDYWGQGTLVTVSS”, the “polyreactivity (PSR sort gate)” value is reported as “low polyreactivity”.
With “QVQLVESGGGLVQAGRSLRLSCAASGLTFSAYAMGWYRQAPGKEREFVAAITDSDGSTYYADSVKGRFTITRDNAKNTVYLQMNSLKPEDTAVYYCAASGSWYYGNWSGGYDYWGQGTQVTVSS” the “polyreactivity (PSR sort gate)” value was “low polyreactivity”.
For “QVQLVESGGGLVQAGGSLRLSCAASGFIFYYNAMGWYRQAPGKERELVATIRGSGGSTYYADSVKGRFTISRDTAKNTVYLHMNSLKPEDTAVYYCATTIYGLTSRLYYWGQGTQVTVSS”, the “polyreactivity (PSR sort gate)” value was “high polyreactivity”.
With “QVQLVESGGGIVQAGGSLRLSCAASYYDMGWYRQAPGKERELVASISSGGSTNYADSVKGRFTISRDNAKNTVYLQMNSLKPEDTAVYYCAADVADGVWVKIADEYWGQGTQVTVSS” the “polyreactivity (PSR sort gate)” value was “low polyreactivity”.
For “QVQLVESGGGLVQAGGSLRLSCAASGFTFHSYAMGWYRQAPGKERELVATISRSGGSTYYADSVKGRFTISRDNAKNTVYLQMNSLKPEDTAVYYCNKLLYGWSKPVGYDYYWGQGTQVTVSS”, the “polyreactivity (PSR sort gate)” value was “high polyreactivity”.
In the case of “QVQLVESGGGLVQAGGSLRLSCAASGRIFIRNAMGWYRQAPGKERELVAAITQSGGSTYYADSVKGRFTISRDNAKNTVYLQMNSLKPEDTAVYYCAADGDNPYLHEEDYWGQGTQVTVSS”, the “polyreactivity (PSR sort gate)” value is reported as “high polyreactivity”.
With “QVQLVESGGGLDQAGGRLRLICAASGRTFTTYAMGWNRQAPGKERELVASISRRGGSTYYADSVKGRFTISRDNAKNTVYLQMTSLKPEDTAVYYCAAKTGTYRGRQVYTYGYWGQGTQVTVSS” the “polyreactivity (PSR sort gate)” value was “high polyreactivity”.
For “QVQLVESGGGLVQAGGSLRLSCAASGSTFRRNAMGWYRQPPGKERELVAAISGSGSTYYADSVKGRFTISRDHAKNTVYLQLNSLKPEDTAVYYCAKDVTDPTSRSDRSGDDYWGQGTQVTVSS”, the “polyreactivity (PSR sort gate)” value was “low polyreactivity”.
In the case of “QVQLVESGRGLVQAGGSLRLSCAASGLTFVYYDMGWYRQAPGKERELVAAITYIGTSTYYADSVKGRFTISRDNAKNTVYLQMNSLKPEDTAVYYCAAPFPIRSGESWRTDLGYDYWGQGTQVTVSS”, the “polyreactivity (PSR sort gate)” value is reported as “low polyreactivity”.
With “QVQLLESGGGLVQAGGSLRLSCDASGSISYHNAMGWYRQAPGKERELVASITSGSSTYYADSVKGSFTISRDNAKNTVYLQMNSLKPEDTAVYYCAAQDYSPYERGRDYWGQGTQVTVSS” the “polyreactivity (PSR sort gate)” value was “low polyreactivity”.
For “QVQLVESGGGLVQAGGSLRLSCAASGSTFRTYTMGWYRQAPGKERELVAAISSIGSSTFYADSVKGRFTISRDNAKNTVYLQMISLKPEDTAVYYCAAVRRGGGVIYDYWGQGTQVTVSS”, the “polyreactivity (PSR sort gate)” value was “high polyreactivity”.
In the case of “QVQLVESGGGLVQAGGSPRLSCAASGFTFGHYAMGWYREAPGKERELVAAISIDGGRTYYADSVKGRFTISRDNAKNSVYLQMNSLKPEDTAVYYCAVPRWFYYYWGQGTQVTVSS”, the “polyreactivity (PSR sort gate)” value is reported as “high polyreactivity”.
With “QVQLVESGGGLVQAGGSLRLTCAASGRTFPSYTMGWYRQAPGKERELVAAITWSGGSTYADSVKGRFSISRDNAKNTVYLQMKSLKPEDSAVYYCNAPIIAYDDGGSLVRYGRGDYWGQGTQVTVSS” the “polyreactivity (PSR sort gate)” value was “low polyreactivity”.
For “QVQLVESGGGLVQAGGSLRLSCAASGFTLAGYDMGWYRQAPGKEREFVATISTYADSVKGRFTISRDNAKNTVYLQMNSQKPEDSAVYYCAAGRYLWHFTFDYWGQGTQVTVSS”, the “polyreactivity (PSR sort gate)” value was “low polyreactivity”.
For “QVQLVESGGGLVQAGGSLRLSCAASGRIFGYNAMGWYRQAPGKERELVAAITQSGGTTYYADSVKGRFTISRDYAKNTVYLQMNSLKPEDTAVYYCARGTRYPNNPFDYWGLGTQVTVSS”, the “polyreactivity (PSR sort gate)” value was “high polyreactivity”.
For “QVQLVESGGGLVQAGGSLRLSCAASGINFRLNAMGWYRQAPGKERELVAAIRRRGGSTYYADSVKGRFTISRDNAKNTVYLQMNSLIPEDTAVYYCAKDPHGSDFGYWGQGNQVTVSS”, the “polyreactivity (PSR sort gate)” value was “low polyreactivity”.
For “QDQLVESGGGLVQAGGRLRLSCAASGYIFAYNAMGRDRQAPGKERELVAAISYSGGRTYYAYSVKGRFTISRYIAKNTVYLQMKSLKPEVTAVYYCAAPFRVGAGPATYDYWGQGTQVTVSS”, the “polyreactivity (PSR sort gate)” value was “high polyreactivity”.

Reference: the nanobody polyreactivity screen of Harvey et al. (2022)
